Numbering of substitutions follows the chain as printed.

Five molecules from patent US20250223339A1 (published 2025) can be followed below.

Assay in all cases: BLI
In general terms: BLI is a label-free optical method that tracks binding on a fibre tip over time.

The target in one assay is recombinant SARS-CoV RBD (SARS-CoV, UniProt P59594 306-527).
Assay [1] addresses recombinant SARS-CoV-2 Delta RBD.
For assay [2], the target named is recombinant SARS-CoV-2 Beta RBD.
For assay [3], the target named is recombinant SARS-CoV-2 Omicron BA.1 RBD.
The target in assay [4] is recombinant SARS-CoV-2 Omicron BA.2 RBD.
Assay [5] addresses recombinant SARS-CoV-2 WT (Wuhan-1) RBD.

B1: ADI-75738 (antibody, V domains shown)
VH: QVQLQQWGAGLLKPSETLSLTCGVHDGAFSGYFWNWIRQSPVKGLEWIGEVTHSGNTNYNPSLKSRVTMSVDASKNEFSLNLTSVTAADTAVYYCARGDFYSTRLAFDVWGQGSMVTVSS
VL: EIVLTQSPATLSLSPGERATLSCRASQSVSTYLAWYQQRPGQAPRLLIYDASNRATGIPARFSGSGSETDFTLTISSLEPEDFAVYYCQQRSNWLTFGGGTKVEIK
In the case of B1, the Kd in the assay with recombinant SARS-CoV RBD was 150 nM; in assay [1], 1.53 nM; in assay [2] it was 0.56 nM; in assay [3], 2.77 nM; in assay [4], 1.59 nM; in assay [5] it was 0.26 nM.

B2: ADI-75700 (antibody, V domains shown)
VH: QVQLQQWGAGLLKPSETLSLTCGVYDGSFSDYFWNWIRQPPGKGLEWIGELTHTGSTNYNPSLKSRVTILADTSKSQFSLNLSSVTAADTAVYYCARGDFYSTRLAFDLWGQGTTVTVSS
VL: B1 VL with V3A, R39K, N53K, S63N, E68G, N93T, L95P, E104D
Consider B2, for which the Kd turned out to be 62.2 nM in the assay with recombinant SARS-CoV RBD; 1.22 nM in assay [1]; 1.23 nM in assay [2]; 7.01 nM in assay [3]; 2.51 nM in assay [4]; 0.24 nM in assay [5].

B3: ADI-75754 (antibody, V domains shown)
VH: QVQLVQSGGDLVQPGGSLRLSCVASGFTFSNYEMNWVRQGPGKGLEWISYISTSGSTYYYADSVKGRFTISRDNARNSLYLQMDSLRVEDTAIYYCLTHPQPQYVRPTQVVWFDPWGQGTLVTVSS
VL: EMTMTQSPGTLSLSPGERATLSCRASESVSSEYLAWHQQRPGQAPRLLIYGASSRPTGIPDRFSGSGSGTDFTLTISRLEPEDFAVYYCHQFASAPITFGQGTRLEIK
With B3, the Kd with recombinant SARS-CoV RBD was 1.41 nM; in assay [1], 3.45 nM; in assay [2] it was 1.61 nM; in assay [3] it was 37 nM; in assay [4], above 300 nM; in assay [5], 3.58 nM.

B4: ADI-75859 (antibody, V domains shown)
VH: QVQLVQSGGGVGQPGRSLRLSCAASGFTFGHYGMHWVRQAPGKGLEWVAAIIYDGSDKQYADSVKGRFTISRDNSKNTVYLQMNSLRPEDTAIYFCAKLGGLYCSGGNCFSGYFDYWGQGTLVTVSS
VL: ETTLTQSPSSLSASVGDRVTITCRASQGISNSLAWYQQKPGKAPKLLLYAASTLESGVPSRFSGSGSGTDFTLTIASLQPEDFATYYCQQYYSSVRFTFGQGTILDLN
As for B4, the Kd in the assay with recombinant SARS-CoV RBD is 226 nM; in assay [1], 0.82 nM; in assay [2], 0.89 nM; in assay [3] it was 13.3 nM; in assay [4] it was 2.37 nM; in assay [5], 0.36 nM.

B5: ADI-75684 (antibody, V domains shown)
V domain 1: QVQLQESGPGLVKPSETLSLTCTVSGGSISSDHFYWGWIRQPPGKGLEWIGTTYYTARTNYNPSLKSRVTISVDTSKNQFSLKLTSVTATDTAIYYCARVEVSGGFSGYDFLTPYYFDYWGQGALVTVSS
V domain 2: not shown
Take B5: the Kd was 2.59 nM with recombinant SARS-CoV RBD; 1.89 nM in assay [1]; 1.05 nM in assay [2]; 1.35 nM in assay [3]; 18.4 nM in assay [4].

The Kd is the equilibrium constant for the complex coming apart.
